These results are taken from paper PMC10359603.

The first series deals with 6H-MBP-FseA (Mesorhizobium japonicum R7A). Briefly: SEC; HiLoad 16/600 Superdex 200; 50 mM Na2HPO4/NaH2PO4 pH 6.35, 10% glycerol, 500 mM NaCl; apparent mass from the elution volume.
Conditions: not given
Regarding 6H-MBP-FseA (natural protein), the stoichiometry N came to 2.

A further series addresses FseA_(1–55) (Mesorhizobium japonicum R7A). In words: two-hybrid; Bacteriomatch II bacterial two-hybrid in E. coli; growth on selective medium with 5 mM 3-amino-1,2,4-triazole; strength as CFU/ml on selective against non-selective medium.
Conditions: not given
“QseM (wild type, bacterial two-hybrid) (natural protein)”: the interaction strength relative to wild-type FseA worked out at 40%.

Another series has as its system 6H-MBP-FseA (Mesorhizobium japonicum R7A (ICEMlSymR7A)?). In words: EMSA. The settings on record: dimer concentration 4-130 nM; Hill slope fit, n=3; FseA EMSA: 10 mM Na phosphate pH 6.35, 220 mM NaCl, 6% glycerol, 1 mM DTT, 0.01 ug/ul poly(dI.dC), 0.1 ug/ul herring sperm DNA, 0.1-0.19 ug/ul BSA, 5 nM probe ….
In the case of PrdfS FseA-box probe, the Kd came to 30 nM.

The target in another series is QseM (wild type, bacterial two-hybrid). Briefly: bacterial two-hybrid.
Conditions: not given
For “FseA (wild type, bacterial two-hybrid) G214”, the percent of parent (% of wild-type FseA) is over 90.
Take “FseA (wild type, bacterial two-hybrid) W32A”: the percent of parent (% of wild-type FseA) was over 90.
Consider “FseA (wild type, bacterial two-hybrid) R219A”, for which the percent of parent (% of wild-type FseA) was over 90.
On the same count and under the same terms, under “FseA (wild type, bacterial two-hybrid) D210A” stands over 90; under “FseA (wild type, bacterial two-hybrid) R37A”, under 10.
The same measure, in the same setting: under “FseA (wild type, bacterial two-hybrid) R36A” stands over 90.

The target of another series is FseA (wild type, bacterial two-hybrid). In words: bacterial two-hybrid.
Conditions: not given
For the substance “QseM (wild type, bacterial two-hybrid) W71A”, the percent of parent (% of wild-type QseM) was under 10.
On the same count and under the same terms, with “QseM (wild type, bacterial two-hybrid) R57A” the figure was over 90; with “QseM (wild type, bacterial two-hybrid) H22A”, over 90; with “QseM (wild type, bacterial two-hybrid) D31A”, under 10.
As for “QseM (wild type, bacterial two-hybrid) L29A”, the percent of parent (% of wild-type QseM) is under 10.
Take “QseM (wild type, bacterial two-hybrid) E56A”: the percent of parent (% of wild-type QseM) was over 90.
Still for that read-out and setting: with “QseM (wild type, bacterial two-hybrid) R68A” the figure was under 10.
Take “QseM (wild type, bacterial two-hybrid) R28A”: the percent of parent (% of wild-type QseM) is over 90.
